Results on 2 molecules are retold here after patent US20230407373A1 (priority 2020, published 2023).

Entries after “also recorded” stand apart in the source; their conditions may differ. Where two headings read alike, the source gives them in different places.

In one assay the test system is HCoV-OC43 gRNA and sgRNA. The format is binding. The conditions noted are these: for target (unweighted spectral count, OC43 Probe II capture) / target (spectral count) / background (spectral count): 36 hpi; for target (unweighted spectral count, OC43 Probe II capture): type n_36_v, FDR<10%; for target (unweighted spectral count, OC43 Probe II capture) / target (unweighted spectral count): tested against no-probe control; for target (unweighted spectral count): OC43 Probe II, infected cells; for target (unweighted spectral count, OC43 Probe II) / background (unweighted spectral count, no-probe control): type n_48_v, 48 hpi; for target (unweighted spectral count, OC43 Probe II): OC43 Probe II capture on infected cells; for background (unweighted spectral count, no-probe control): no-probe control on infected cells; for target (spectral count) / background (spectral count): type s_36_m, Probe II; for target (spectral count): HCoV-OC43-infected HCT-8 cells; for background (spectral count): uninfected-probe control.

A further assay relates to SARS-CoV-2. The format is cell-based. The conditions noted are these: for change in viral RNA levels (gRNA, N sgRNA) after siRNA depletion: Calu-3 cells, 50 nM siRNA, RT-qPCR, relative to siNC. (In general: In qPCR the cycle at which signal appears reflects the starting amount.)
A further assay has as its system SARS-CoV-2 gRNA. The format is binding.
Assay [1] deals with SARS-CoV-2 gRNA and sgRNAs. The format is binding. The conditions noted are these: for target (unweighted spectral count in RNP capture): Probe II capture, LC-MS/MS LFQ; for background (unweighted spectral count in control): no-probe control pull-down, used as background for Probe II.
Another assay concerns gRNA of HCoV-OC43. The assay is classed as binding. The conditions noted are these: for target (spectral count, OC43 Probe I RNP capture) / background (spectral count, no-probe control): type n_48_v: 48 hours post-infection; for target (spectral count, OC43 Probe I RNP capture): infected cells, unweighted spectral count; for background (spectral count, no-probe control): no-probe control on infected cells.

B1: CELF1: host protein, UniProt Q92879 (protein, UniProt Q92879 1-486, looked up)
CUGBP Elav-like family member …: MNGTLDHPDQPDLDAIKMFVGQVPRTWSEKDLRELFEQYGAVYEINVLRDRSQNPPQSKGCCFVTFYTRKAALEAQNALHNMKVLPGMHHPIQMKPADSEKNNAVEDRKLFIGMISKKCTENDIRVMFSSFGQIEECRILRGPDGLSRGCAFVTFTTRAMAQTAIKAMHQAQTMEGCSSPMVVKFADTQKDKEQKRMAQQLQQQMQQISAASVWGNLAGLNTLGPQYLALYLQLLQQTASSGNLNTLSSLHPMGGLNAMQLQNLAALAAAASAAQNTPSGTNALTTSSSPLSVLTSSGSSPSSSSSNSVNPIASLGALQTLAGATAGLNVGSLAGMAALNGGLGSSGLSNGTGSTMEALTQAYSGIQQYAAAALPTLYNQNLLTQQSIGAAGSQKEGPEGANLFIYHLPQEFGDQDLLQMFMPFGNVVSAKVFIDKQTNLSKCFGFVSYDNPVSAQAAIQSMNGFQIGMKRLKVQLKRSKNDSKPY
Regarding B1, in the assay on HCoV-OC43 gRNA and sgRNA, the “target (unweighted spectral count, OC43 Probe II capture)” value was found to be 14; the “target (unweighted spectral count, OC43 Probe II)” value is listed as 14; the “background (unweighted spectral count, no-probe control)” value is reported as 1; the “target (spectral count)” value came to 14. For the same molecule, the “background (spectral count)” value in the assay on HCoV-OC43 gRNA and sgRNA stood at 1. In addition, in the assay with HCoV-OC43 gRNA and sgRNA (24 hpi (type n_24_v)), the “target (unweighted spectral count)” value is recorded as 6. For the same molecule, in the assay on SARS-CoV-2, the “change in viral RNA levels (gRNA, N sgRNA) after siRNA depletion” value is “increased viral RNAs; also recorded: only modest”. Further, the “enrichment in SARS-CoV-2 Probe I RNP capture” value with SARS-CoV-2 gRNA is recorded as “found in the SARS-CoV-2 experiments”. For the same molecule, in assay [1], the “enrichment in SARS-CoV-2 Probe II RNP capture” value is on record as “found in the SARS-CoV-2 experiments”, the “target (unweighted spectral count in RNP capture)” value amounted to 25 and the “background (unweighted spectral count in control)” value was found to be 1. Further, in the assay with gRNA of HCoV-OC43 (type g_36_m, HCoV-OC43-infected HCT-8 cells, 36 hpi, Probe I), the “target (spectral count)” value is on record as 15. Also, the “background (spectral count)” value with gRNA of HCoV-OC43 (type g_36_m, uninfected-probe control, 36 hpi, Probe I) is reported as 1. Besides, in the assay with gRNA of HCoV-OC43, the “target (spectral count, OC43 Probe I RNP capture)” value was found to be 16 and the “background (spectral count, no-probe control)” value came to 1.

B2: ZC3HAV1: host protein, UniProt Q7Z2W4 (protein, UniProt Q7Z2W4 2-902, looked up)
Zinc finger CCCH-type …: ADPEVCCFITKILCAHGGRMALDALLQEIALSEPQLCEVLQVAGPDRFVVLETGGEAGITRSVVATTRARVCRRKYCQRPCDNLHLCKLNLLGRCNYSQSERNLCKYSHEVLSEENFKVLKNHELSGLNKEELAVLLLQSDPFFMPEICKSYKGEGRQQICNQQPPCSRLHICDHFTRGNCRFPNCLRSHNLMDRKVLAIMREHGLNPDVVQNIQDICNSKHMQKNPPGPRAPSSHRRNMAYRARSKSRDRFFQGSQEFLASASASAERSCTPSPDQISHRASLEDAPVDDLTRKFTYLGSQDRARPPSGSSKATDLGGTSQAGTSQRFLENGSQEDLLHGNPGSTYLASNSTSAPNWKSLTSWTNDQGARRKTVFSPTLPAARSSLGSLQTPEAVTTRKGTGLLSSDYRIINGKSGTQDIQPGPLFNNNADGVATDITSTRSLNYKSTSSGHREISSPRIQDAGPASRDVQATGRIADDADPRVALVNDSLSDVTSTTSSRVDDHDSEEICLDHLCKGCPLNGSCSKVHFHLPYRWQMLIGKTWTDFEHMETIEKGYCNPGIHLCSVGSYTINFRVMSCDSFPIRRLSTPSSVTKPANSVFTTKWIWYWKNESGTWIQYGEEKDKRKNSNVDSSYLESLYQSCPRGVVPFQAGSRNYELSFQGMIQTNIASKTQKDVIRRPTFVPQWYVQQMKRGPDHQPAKTSSVSLTATFRPQEDFCFLSSKKYKLSEIHHLHPEYVRVSEHFKASMKNFKIEKIKKIENSELLDKFTWKKSQMKEEGKLLFYATSRAYVESICSNNFDSFLHETHENKYGKGIYFAKDAIYSHKNCPYDAKNVVMFVAQVLVGKFTEGNITYTSPPPQFDSCVDTRSNPSVFVIFQKDQVYPQYVIEYTEDKACVIS
On to B2, for which, in the assay on HCoV-OC43 gRNA and sgRNA, the “target (unweighted spectral count, OC43 Probe II capture)” value is on record as 18; the “target (unweighted spectral count, OC43 Probe II)” value was determined as 22; the “background (unweighted spectral count, no-probe control)” value amounted to 1; the “target (spectral count)” value was determined as 18. In the assay with HCoV-OC43 gRNA and sgRNA, the “background (spectral count)” value was 1. The “target (unweighted spectral count)” value with HCoV-OC43 gRNA and sgRNA (12 hpi (type n_12_v)) worked out at 8. For the same molecule, the “target (unweighted spectral count)” value with HCoV-OC43 gRNA and sgRNA (24 hpi (type n_24_v)) came to 13. Moreover, in the assay with SARS-CoV-2, the “antiviral or proviral role of the host protein indicated by knockdown” value is “may act as antiviral factors” and the “change in viral RNA levels (gRNA, N sgRNA) after siRNA depletion” value is “increased viral RNAs”. The “enrichment in SARS-CoV-2 Probe I RNP capture” value with SARS-CoV-2 gRNA is “enriched; also recorded: found in the SARS-CoV-2 experiments”. Besides, the “target (unweighted spectral count of the protein in the RNP capture)” value in the assay with SARS-CoV-2 gRNA ([…], LC-MS/MS, Probe I sample (first 199 lines of Table 2)) is recorded as 31. In addition, in assay [1], the “enrichment in SARS-CoV-2 Probe II RNP capture” value is “enriched; also recorded: found in the SARS-CoV-2 experiments”, the “target (unweighted spectral count in RNP capture)” value came out at 48 and the “background (unweighted spectral count in control)” value worked out at 1. Moreover, in the assay with gRNA of HCoV-OC43, the “target (spectral count, OC43 Probe I RNP capture)” value is 17 and the “background (spectral count, no-probe control)” value is recorded as 1.
